The target in assay [1] is ΔM-N L-selectin–GFP (human) (UniProt P14151). The assay can be described thus: FRET or BRET; FLIM measurement of FRET; THP-1 cells perfused over TNF-activated HUVECs, fixed in 4% PFA at 25 min (late TEM); optical section above the endothelium (top, non-transmigrated uropods).
Assay [2] shares this target. The assay can be described thus: FRET or BRET; FLIM measurement of FRET; THP-1 cells perfused over TNF-activated HUVECs, fixed in 4% PFA at 6 min (early TEM); optical section below the endothelium (base, transmigrated pseudopods). (In BRET a luciferase serves as donor, and the signal depends on an acceptor being close.)
Assay [3] shares this target. The assay can be described thus: FRET or BRET; FLIM measurement of FRET between GFP (donor, on L-selectin) and RFP (on the ERM protein); unchallenged THP-1 cells seeded onto poly-L-lysine-coated coverslips for 10 min at 37°C, fixed.
For assay [4] the target is unchanged. The assay can be described thus: FRET or BRET; FLIM measurement of FRET; THP-1 cells perfused over TNF-activated HUVECs, fixed in 4% PFA at 6 min (early TEM); optical section above the endothelium (top, non-transmigrated uropods).
For assay [5] the target is unchanged. Kind of assay: FRET or BRET; FLIM measurement of FRET; THP-1 cells perfused over TNF-activated HUVECs, fixed in 4% PFA at 25 min (late TEM); optical section below the endothelium (base, transmigrated pseudopods).

Sequence of UniProt P14151 (P14151 39-372, stated change not applied): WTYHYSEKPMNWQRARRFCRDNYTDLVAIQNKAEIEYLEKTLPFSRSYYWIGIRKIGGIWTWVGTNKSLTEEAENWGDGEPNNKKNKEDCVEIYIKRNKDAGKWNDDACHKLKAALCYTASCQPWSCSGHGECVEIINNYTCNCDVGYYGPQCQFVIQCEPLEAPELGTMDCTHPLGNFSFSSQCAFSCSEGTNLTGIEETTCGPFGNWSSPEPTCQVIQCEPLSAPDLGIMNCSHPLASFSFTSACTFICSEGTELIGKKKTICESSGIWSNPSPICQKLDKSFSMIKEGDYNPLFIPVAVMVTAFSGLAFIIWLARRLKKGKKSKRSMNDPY

“ezrin–RFP (from UniProt P15311 1-586) (natural protein)” had an FRET efficiency (uropods, 25 min) in assay [1] of 7%. This substance came in with an FRET efficiency (pseudopods, 6 min) in assay [2] of 7.1%. The substance also registered a fold FRET efficiency against moesin with the same L-selectin (unchallenged cells) in assay [3] of 3.2 fold. The FRET efficiency (uropods, 6 min) in assay [4] was found to be 6.5%. The same substance registered an FRET efficiency (pseudopods, 25 min) in assay [5] of 6.5%.

For the substance “moesin–RFP (from UniProt P26041 1-577) (natural protein)”, the FRET efficiency (uropods, 25 min) in assay [1] stood at 2%. Besides, the FRET efficiency (pseudopods, 6 min) in assay [2] is 2.4%. Besides, the FRET efficiency (uropods, 6 min) in assay [4] turned out to be 2.7%. Also, in assay [5], the FRET efficiency (pseudopods, 25 min) is 4.2%.

The values above are taken from article PMC6051341.
